The supplement of paper PMC7877785
± gives the uncertainty stated by the source.

Test: self-splicing fitness, log relative to wild type (ln ratio); higher = more splicing; Tetrahymena group I intron in knt gene, E. coli kanamycin selection, DiMSum; sequences stand for … in CUCUCU…GGAGGGAAAAGUUAUCAGGCAUGCACCUGGUAGCUAGUCUUUAAACCAAUAGAUUGCAUCGGUUUAAAAGGCAAGACCGUCAAAUUGCGGGAAAGGGGUCAACAGCCGUUCAGUACCAAGUCUCAGGGGAAACUUUGAGAUGGCCUUGCAAAGGGUAUGGUAAUAAGCUGACGGACAUGGUCCUAACCACGCAGCCAAGUCCUAAGUCAACAGAUCUUCUGUUGAUAUGGAUGCAGUUCACAGACUAAAUGUCGGUCGGGGAAGAUGUAUUCUUCUCAUAAGAUAUAGUCGGACCUCUCCUUAAUGGGAGCUAGCGGAUGAAGUGAUGCAACACUGGAGCCGCUGGGAACUAAUUUGUAUGCGAAAGUAUAUUGAUUAGUUUUGGAGUACUCGUGGUCG
Outline: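 Fitness was computed with DiMSum as the error-weighted combination of replicate fold changes, kanamycin versus none, each normalised to wild type. The library randomised all eight intron nucleotides of the P1ex region, with the intron placed in the knt kanamycin-resistance gene on pET-22b(+) in E. coli BL21(DE3). Six replicate transformations were grown overnight at 37°C or 30°C on LB agar with or without 25 μg/mL kanamycin, plus 100 μg/mL carbenicillin, 50 μM IPTG and 0.2% rhamnose. Pooled colonies were amplicon-sequenced on an Illumina HiSeq 2500.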

Sequence	self-splicing fitness (ln) (30 °C)	self-splicing fitness (ln) (37 °C)
UUAUAGCAAUAUUACGUACA	-1.06 ± 0.16	-0.0284 ± 0.16
UUAUAGCAAUAUUACGUCUA	-0.963 ± 0.15	-0.336 ± 0.11
UUAUAGCAAUAUUACGUGAC	-3.22 ± 0.22	-0.826 ± 0.22
UUAUAGCAAUAUUACGUGCA	-2.37 ± 0.23	-1.07 ± 0.2
UUAUAGCAAUAUUACGUUAC	-4.01 ± 0.43	-3.56 ± 0.37
UUAUAGCAAUAUUACGUUUA	-2.29 ± 0.16	-0.505 ± 0.12
UUCAAGCAAUAUUACGACAC	-2.8 ± 0.28	-1.39 ± 0.18
UUCAAGCAAUAUUACGAUCA	-0.845 ± 0.082	-0.189 ± 0.093
UUCAAGCAAUAUUACGCAAC		-1.43 ± 0.47
UUCAAGCAAUAUUACGCCAG	0.732 ± 0.48	0.119 ± 0.33
UUCAAGCAAUAUUACGCGAA	-3.01 ± 0.18	-1.47 ± 0.13
UUCAAGCAAUAUUACGCUCA	-1.42 ± 0.16	0.0916 ± 0.2
UUCAAGCAAUAUUACGCUUC	-3.09 ± 0.22	-2.8 ± 0.44
UUCAAGCAAUAUUACGGAUG	-2.34 ± 0.14	-1.7 ± 0.14
UUCAAGCAAUAUUACGGCCU	-2.42 ± 0.17	-0.267 ± 0.15
UUCAAGCAAUAUUACGGCGC	-1.42 ± 0.14	-1.47 ± 0.2
UUCAAGCAAUAUUACGGGUU	-2.38 ± 0.12	-0.76 ± 0.12
UUCAAGCAAUAUUACGGUCA	-0.929 ± 0.097	0.00589 ± 0.098
UUCAAGCAAUAUUACGUAAC		-2.22 ± 0.42
UUCAAGCAAUAUUACGUAAU	-2.49 ± 0.087	-1.56 ± 0.1
UUCAAGCAAUAUUACGUACU	-1.3 ± 0.13	-0.455 ± 0.15
UUCAAGCAAUAUUACGUGCA	-0.545 ± 0.047	-0.00601 ± 0.065
UUCAAGCAAUAUUACGUGGC	-3.8 ± 0.19	-1.83 ± 0.13
UUCAAGCAAUAUUACGUUAU	-4.39 ± 0.21	-2.3 ± 0.15
UUCCAGCAAUAUUACGAAAC		-2.29 ± 0.35

Sequence	self-splicing fitness (ln) (30 °C)	self-splicing fitness (ln) (37 °C)
UUCCAGCAAUAUUACGAAGU		-1.47 ± 0.32
UUCCAGCAAUAUUACGAUAG	-2.58 ± 0.18	-1.4 ± 0.16
UUCCAGCAAUAUUACGAUAU	-3.13 ± 0.25	-0.723 ± 0.16
UUCCAGCAAUAUUACGAUUU	-2.34 ± 0.088	-0.783 ± 0.1
UUCCAGCAAUAUUACGCAUC	-3.6 ± 0.23	-2.2 ± 0.17
UUCCAGCAAUAUUACGCCAU	-3.3 ± 0.19	-2.82 ± 0.25
UUCCAGCAAUAUUACGCCUU	-2.28 ± 0.1	-0.957 ± 0.096
UUCCAGCAAUAUUACGCUAA	-0.0987 ± 0.083	-0.376 ± 0.084
UUCCAGCAAUAUUACGGAGG	-3.51 ± 0.17	-1.03 ± 0.1
UUCCAGCAAUAUUACGGAGU	-4.4 ± 0.42	
UUCCAGCAAUAUUACGGCAU	-1.79 ± 0.085	-0.66 ± 0.089
UUCCAGCAAUAUUACGGGGA		-2.87 ± 0.29
UUCCAGCAAUAUUACGUAUC	-1.29 ± 0.15	-2.83 ± 0.34
UUCCAGCAAUAUUACGUGCA	-1.44 ± 0.1	-1.11 ± 0.087
UUCCAGCAAUAUUACGUUCC		-1.84 ± 0.42
UUCGAGCAAUAUUACGAGCA	-1.41 ± 0.16	-0.946 ± 0.15
UUCGAGCAAUAUUACGAUAC	-3.34 ± 0.23	-3.26 ± 0.26
UUCGAGCAAUAUUACGAUAG	-2.73 ± 0.44	-1.77 ± 0.25
UUCGAGCAAUAUUACGAUUG		-2.52 ± 0.34
UUCGAGCAAUAUUACGCGGU	-3.26 ± 0.2	-1.17 ± 0.2
UUCGAGCAAUAUUACGCUAA	-2.91 ± 0.29	-1.61 ± 0.17
UUCGAGCAAUAUUACGCUCA	-2.23 ± 0.25	-1.9 ± 0.29
UUCGAGCAAUAUUACGGACG	-1.8 ± 0.18	-1.42 ± 0.24
UUCGAGCAAUAUUACGGAGC		-3.16 ± 0.38
UUCGAGCAAUAUUACGGAGG	-4.27 ± 0.34	-1.47 ± 0.24

Sequence	self-splicing fitness (ln) (30 °C)	self-splicing fitness (ln) (37 °C)
UUCGAGCAAUAUUACGGCGG	-1.3 ± 0.095	-0.639 ± 0.12
UUCGAGCAAUAUUACGGGUC	-3.03 ± 0.38	-2.89 ± 0.43
UUCGAGCAAUAUUACGGGUU	-3.21 ± 0.22	-2.78 ± 0.35
UUCGAGCAAUAUUACGUACG	-3.15 ± 0.38	
UUCGAGCAAUAUUACGUAUC	-3 ± 0.34	-0.649 ± 0.23
UUCGAGCAAUAUUACGUAUG	-2.17 ± 0.13	-2.49 ± 0.19
UUCGAGCAAUAUUACGUCGC	-2.09 ± 0.21	
UUCGAGCAAUAUUACGUCGU	-3.29 ± 0.33	-1.24 ± 0.21
UUCGAGCAAUAUUACGUCUU	-2.89 ± 0.31	-1.69 ± 0.39
UUCGAGCAAUAUUACGUUUC	-3.44 ± 0.35	-2.37 ± 0.35
UUCUAGCAAUAUUACGAAAA	-1.6 ± 0.14	-0.631 ± 0.13
UUCUAGCAAUAUUACGAAGG	-2.9 ± 0.19	-2.38 ± 0.39
UUCUAGCAAUAUUACGACAG	-1.13 ± 0.22	-1.59 ± 0.32
UUCUAGCAAUAUUACGACCA	-0.559 ± 0.15	-0.269 ± 0.14
UUCUAGCAAUAUUACGAGCG	-0.769 ± 0.066	-0.94 ± 0.072
UUCUAGCAAUAUUACGAGUC		-1.86 ± 0.39
UUCUAGCAAUAUUACGAUAU	-2.27 ± 0.34	-1.77 ± 0.3
UUCUAGCAAUAUUACGAUCG		-2.02 ± 0.28
UUCUAGCAAUAUUACGCAUA	-0.852 ± 0.12	-0.774 ± 0.14
UUCUAGCAAUAUUACGGAAC	-3.74 ± 0.43	-1.86 ± 0.3
UUCUAGCAAUAUUACGGACA	-0.456 ± 0.097	0.211 ± 0.12
UUCUAGCAAUAUUACGGUGA	-0.462 ± 0.086	-0.28 ± 0.11
UUCUAGCAAUAUUACGUAUG	-3 ± 0.17	-1.8 ± 0.17
UUCUAGCAAUAUUACGUGCC	-3.06 ± 0.36	
UUCUAGCAAUAUUACGUGGU	-4.03 ± 0.34	-0.962 ± 0.18

Sequence	self-splicing fitness (ln) (30 °C)	self-splicing fitness (ln) (37 °C)
UUCUAGCAAUAUUACGUUUA	-1.43 ± 0.16	-1.45 ± 0.12
UUCUAGCAAUAUUACGUUUC	-2.75 ± 0.39	-2.47 ± 0.3
UUGAAGCAAUAUUACGAGAA	-1.9 ± 0.17	-1.7 ± 0.18
UUGAAGCAAUAUUACGAUAA	-0.132 ± 0.23	0.686 ± 0.36
UUGAAGCAAUAUUACGCAAA	-0.591 ± 0.13	-0.121 ± 0.14
UUGAAGCAAUAUUACGCACC	-2.62 ± 0.34	-1.41 ± 0.4
UUGAAGCAAUAUUACGCCCG	0.0378 ± 0.14	0.251 ± 0.21
UUGAAGCAAUAUUACGCGAU	-1.96 ± 0.34	
UUGAAGCAAUAUUACGCGCG	0.0526 ± 0.092	0.136 ± 0.12
UUGAAGCAAUAUUACGCGGU	-2.94 ± 0.16	-2.3 ± 0.19
UUGAAGCAAUAUUACGCUGG	-0.756 ± 0.094	-0.221 ± 0.15
UUGAAGCAAUAUUACGGCAG	0.393 ± 0.078	-0.0313 ± 0.092
UUGAAGCAAUAUUACGGGGG	-2.59 ± 0.17	-1.9 ± 0.19
UUGAAGCAAUAUUACGUAGG	-1.27 ± 0.11	-0.153 ± 0.12
UUGAAGCAAUAUUACGUCAU	-1.41 ± 0.056	-0.306 ± 0.069
UUGAAGCAAUAUUACGUGAU	-2.29 ± 0.11	-1.3 ± 0.16
UUGAAGCAAUAUUACGUGUC	-2.93 ± 0.21	-2.47 ± 0.24
UUGAAGCAAUAUUACGUGUG	-0.963 ± 0.056	-0.69 ± 0.072
UUGAAGCAAUAUUACGUUAU	-2.08 ± 0.099	-0.402 ± 0.1
UUGAAGCAAUAUUACGUUUU	-2.7 ± 0.2	-2.52 ± 0.3
UUGCAGCAAUAUUACGAAAC	-3.32 ± 0.41	-1.87 ± 0.45
UUGCAGCAAUAUUACGAAAU	-2.39 ± 0.22	-2.33 ± 0.39
UUGCAGCAAUAUUACGAAGU	-2.38 ± 0.23	-1.75 ± 0.36
UUGCAGCAAUAUUACGAAUA	-1.66 ± 0.1	-0.197 ± 0.13
UUGCAGCAAUAUUACGACAA	-0.619 ± 0.087	0.212 ± 0.1
